Laboratory results taken from paper PMC3059592 (Virology, 2010).
“And” between values parts separate entries of the source, which are not always exact repeats. Identical values can stand only once.

Biological target: the molecule itself
Assay: sucrose density gradient centrifugation

B1: PIV-5 hemagglutinin-neuraminidase (HN) protein, mutant E37D (natural protein)
chain: MVAEDAPVRATCRVLFRTTTLIFLCTLLALSISILYDSLITQKQIMSQAGSTGSNSGLGSITDLLNNILSVANQIIYNSAVALPLQLDTLESTLLTAIKSLQTSDKLEQNCSWSAALINDNRYINGINQFYFSIAEGRNLTLGPLLNMPSFIPTATTPEGCTRIPSFSLTKTHWCYTHNVILNGCQDHVSSNQFVSMGIIEPTSAGFPFFRTLKTLYLSDGVNRKSCSISTVPGGCMMYCFVSTQPERDDYFSAAPPEQRIIIMYYNDTIVERIINPPGVLDVWATLNPGTGSGVYYLGWVLFPIYGGVIKGTSLWNNQANKYFIPQMVAALCSQNQATQVQNAKSSYYSSWFGNRMIQSGILACPLRQDLTNECLVLPFSNDQVLMGAEGRLYMYGDSVYYYQRSNSWWPMTMLYKVTITFTNGQPSAISAQNVPTQQVPRPGTGDCSATNRCPGFCLTGVYADAWLLTNPSSTSTFGSEATFTGSYLNTATQRINPTMYIANNTQIISSQQFGSSGQEAAYGHTTCFRDTGSVMVYCIYIIELSSSLLGQFQIVPFIRQVTLS
stoichiometry N: 2 and 4
